Assay results reported in PMC4652282, “An Efficient Site-Specific Method for Irreversible Covalent Labeling of Proteins with a Fluorophore”.
Residue numbers refer to the chain shown, from its start.

Tests used:
Conditions in all cases: protein: recombinant; tags: C-terminal SS-his6-GG-ald6 (LCTPSR); chain copies: 2; blunt, one internal G/T mismatch
[1] = target: T1, EcMutS-his6/ald6, AF647-labeled (Escherichia coli, UniProt P23909 1-853); assay: SPR; kon 3.44e5 M-1 s-1; koff 8.93e-4 s-1; koff with ATP 0.26 s-1; SPR at 25 C, buffer not shown; EMSA: 25 mM Hepes (GS Buffer, rest not shown), on ice 15 min
T1 sequence: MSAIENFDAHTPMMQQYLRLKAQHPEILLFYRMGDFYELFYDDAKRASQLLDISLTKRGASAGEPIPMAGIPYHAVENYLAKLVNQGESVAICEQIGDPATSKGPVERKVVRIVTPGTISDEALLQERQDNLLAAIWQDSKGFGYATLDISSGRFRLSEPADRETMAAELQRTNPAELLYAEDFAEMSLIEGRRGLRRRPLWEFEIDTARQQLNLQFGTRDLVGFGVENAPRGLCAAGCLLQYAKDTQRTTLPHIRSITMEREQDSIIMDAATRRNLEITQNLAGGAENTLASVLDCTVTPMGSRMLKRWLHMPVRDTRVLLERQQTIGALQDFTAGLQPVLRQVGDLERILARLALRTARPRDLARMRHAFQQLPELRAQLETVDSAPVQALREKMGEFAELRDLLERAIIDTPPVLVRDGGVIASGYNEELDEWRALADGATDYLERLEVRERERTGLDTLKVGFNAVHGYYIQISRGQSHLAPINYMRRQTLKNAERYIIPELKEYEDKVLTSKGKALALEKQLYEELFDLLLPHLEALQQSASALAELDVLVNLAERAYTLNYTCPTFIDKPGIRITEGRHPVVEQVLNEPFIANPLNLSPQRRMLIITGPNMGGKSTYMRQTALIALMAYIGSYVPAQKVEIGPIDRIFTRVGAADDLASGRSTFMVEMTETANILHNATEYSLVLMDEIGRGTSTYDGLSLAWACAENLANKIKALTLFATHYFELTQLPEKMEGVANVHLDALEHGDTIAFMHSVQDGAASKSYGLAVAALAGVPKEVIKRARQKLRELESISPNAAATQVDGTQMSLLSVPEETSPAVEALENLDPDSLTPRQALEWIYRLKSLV

[2] = target: T2, EcMutS-his6/ald6, unlabeled (Escherichia coli, UniProt P23909 1-853); assay: SPR; kon 5.29e5 M-1 s-1; koff 6.10e-4 s-1; koff with ATP 0.53 s-1; SPR at 25 C, buffer not shown; EMSA: 25 mM Hepes (GS Buffer, rest not shown), on ice 15 min
T2 sequence: T1 sequence

[3] = target: T3, EcMutS-his6/ald6(D835R,R840E), unlabeled (Escherichia coli, UniProt P23909 1-853, D835R;R840E); assay: SPR; kon 9.48e5 M-1 s-1; koff 33.02e-4 s-1; koff with ATP 0.48 s-1; SPR at 25 C, buffer not shown; EMSA: 25 mM Hepes (GS Buffer, rest not shown), on ice 15 min
T3 sequence: T1 sequence with D835R, R840E

[4] = target: T4, EcMutS-his6/ald6(D835R,R840E), AF555-labeled (Escherichia coli, UniProt P23909 1-853, D835R;R840E); assay: SPR; kon 4.37e5 M-1 s-1; koff 24.48e-4 s-1; koff with ATP 0.45 s-1; SPR at 25 C, buffer not shown; EMSA: 25 mM Hepes (GS Buffer, rest not shown), on ice 15 min
T4 sequence: T1 sequence with D835R, R840E

B1: G/T mismatch DNA (SPR) (dsDNA)
DNA 1: AACTATAGGGCGAATTGGGTACCGCTGAATTGCACCGAGCTTGATCCTCGATGATCCTAAGCTAAGCTTCAGCTCCAGCTTT
DNA 2: AAAGCTGGAGCTGAAGCTTAGCTTAGGATCATCGAGGATCGAGCTCGGTGCAATTCAGCGGTACCCAATTCGCCCTATAGTT
Binder B1 has a Kd [1] of 2.63 ± 0.49 nM, a Kd [2] of 1.25 ± 0.53 nM and a Kd [3] of 3.85 ± 1.78 nM. The Kd [4] was 5.75 ± 1.51 nM.
